The text below walks through data of patent US20160193294A1 (UNIVERSITY OF QUEENSLAND, published 2016).

Experiment [1] has as its target T1, recombinant protein made of the entire extracellular domain of mouse P-selectin fused to the Fc fragment of … (mouse; human, UniProt Q01102 42-709).
T1 construct: extracellular domain; Bought from R&D Systems and adsorbed to polystyrene wells at 3 ug/ml; also called muPsel-IgG1Fc; muP-selectin-IgG1Fc; not shown: Fc fragment of human IgG1
T1 sequence (looked up): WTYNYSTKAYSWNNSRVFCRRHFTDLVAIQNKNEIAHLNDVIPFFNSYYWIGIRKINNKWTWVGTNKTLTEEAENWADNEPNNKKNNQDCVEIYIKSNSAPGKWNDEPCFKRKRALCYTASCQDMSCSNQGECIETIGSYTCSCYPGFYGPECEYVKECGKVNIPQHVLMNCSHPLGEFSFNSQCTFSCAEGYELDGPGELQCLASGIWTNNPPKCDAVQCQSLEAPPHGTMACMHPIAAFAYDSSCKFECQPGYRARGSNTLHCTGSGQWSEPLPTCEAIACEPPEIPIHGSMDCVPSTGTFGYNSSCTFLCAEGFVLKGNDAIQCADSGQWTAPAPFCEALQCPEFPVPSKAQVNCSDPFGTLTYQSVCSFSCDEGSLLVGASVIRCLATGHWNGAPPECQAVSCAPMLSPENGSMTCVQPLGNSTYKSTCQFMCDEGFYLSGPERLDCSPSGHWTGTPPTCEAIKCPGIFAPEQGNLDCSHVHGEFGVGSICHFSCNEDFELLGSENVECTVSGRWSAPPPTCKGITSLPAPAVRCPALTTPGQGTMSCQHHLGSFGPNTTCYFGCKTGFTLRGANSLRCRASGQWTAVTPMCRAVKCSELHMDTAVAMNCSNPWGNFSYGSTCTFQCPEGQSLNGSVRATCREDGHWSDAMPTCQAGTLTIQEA
As to the kind of experiment: cell adhesion assay: calcein-labelled cells of wild-type and knock-out mice on wells coated with the fusion protein. Here is the method:
96-well polystyrene cell culture plates were coated overnight at 4*C with 50 μL per well of phosphate buffered saline containing 3 μg/ml of recombinant proteins made of the entire extracellular domain of mouse E-selectin, P-selectin or VCAM-1/CD106 fused to the Fc fragment of human IgG1 (muEsel-IgG1Fc, muPsel-IgG1Fc, or muVCAM1-IgG1Fc respectively, from R&D Systems)) as previously described 8. Prior to the experiment, plates were flicked to remove excess coating solution and filled with Hepes buffered saline supplemented with 2% bovine serum albumin to block non-specific adhesion to plastic surfaces. […]
Bone marrow cells from CD44 KO, PSGL1 KO and CD44-PSGL1 double KO mice were stained with FITC-conjugated biotinylated rat monoclonal antibodies specific for CD3, CD5. […] Lineage-negative CD117-positive hematopoietic progenitor cells were then sorted by fluorescence activated cell sorting on an Aria cell sorter (BD Biosciences).
Sorted Lineage-negative CD117-positive hematopoietic progenitor cells when then washed and resuspended in cell adhesion buffer and labelled with the intracellular fluorescent dye calcein-AM (Molecular Probes) for 40 minutes at 37° C. […] The fluorescence contained in the remaining adherent cells was measured on a Fluorostar plate fluorometer following exciting at 488 nm using a 530 nm filter.

Experiment [2] has as its target T2, recombinant human E-selectin extracellular domain fused with the Fc fragment of human IgM (human, UniProt P16581 22-556).
T2 construct: extracellular domain; Used as COS7 supernatant (pCDM8 plasmid); It was pre-complexed with Cy5-conjugated donkey anti-human IgM F(ab)'2 before the assay; also called E-selectin-IgMFc; selectin-IgMFc; not shown: Fc fragment of human IgM
T2 sequence (looked up): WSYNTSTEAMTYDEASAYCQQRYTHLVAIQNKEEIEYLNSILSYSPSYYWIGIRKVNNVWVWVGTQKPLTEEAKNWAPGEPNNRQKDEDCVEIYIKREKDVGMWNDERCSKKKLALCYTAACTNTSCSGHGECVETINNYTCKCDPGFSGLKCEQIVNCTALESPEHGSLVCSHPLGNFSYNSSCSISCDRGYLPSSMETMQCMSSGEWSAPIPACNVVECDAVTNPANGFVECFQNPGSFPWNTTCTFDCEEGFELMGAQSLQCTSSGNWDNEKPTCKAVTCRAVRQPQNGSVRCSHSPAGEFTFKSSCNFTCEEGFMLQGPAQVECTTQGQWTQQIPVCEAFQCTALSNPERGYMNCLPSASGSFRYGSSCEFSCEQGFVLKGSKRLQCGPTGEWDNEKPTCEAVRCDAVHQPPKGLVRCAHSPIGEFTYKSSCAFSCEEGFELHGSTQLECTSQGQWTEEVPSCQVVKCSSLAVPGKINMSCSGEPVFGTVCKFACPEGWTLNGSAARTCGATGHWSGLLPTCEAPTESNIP
Put plainly: flow cytometry: soluble selectin-IgMFc on bone marrow granulocytes of wild-type and knock-out mice. The text has this: In a second assay, binding of recombinant E-selectin and P-selectin was directly measured in solution by flow cytometry. For this purpose, recombinant human P-selectin or E-selectin extracellular domains fused with the Fc portion of human IgM were used as selectins required prior clustering to bind to their cellular receptors. As IgM are decameric proteins, each fusion recombinant protein is a decamer or either P-selectin or E-selectin. The clustering resulting from decamerization of selectin enables them to directly interact in solution with their cellular receptors. The inventors therefore measured the binding of recombinant selectin-IgM Fc fusion proteins to bone marrow cells isolated from wild-type, PSGL1−/−, CD44−/− or PSGL1−/−CD44−/− double KO mice. Detection by flow cytometry was performed by pre-complexing the selectin-IgMFc fusion proteins with a Cy5-conjubated donkey anti-human IgM antibody. […] Thus these experiments confirm that PSGL1 and CD44 are necessary and sufficient for E-selectin binding to mature granulocytes, hematopoietic stem cells can bind and adhere to E-selectin via alternative receptors which are not encoded by the PSGL1 and C44 genes.
Prior to the experiment, recombinant selectin-IgMFc fusion proteins were complexed with Cy5-conjugated donkey IgG F(ab)′2 fragments anti-human IgM. […]

B1: P-selectin glycoprotein ligand-1 (mouse, on bone marrow cells) (receptor, UniProt Q62170 42-397, looked up)
chain: QVVGDDDFEDPDYTYNTDPPELLKNVTNTVAAHPELPTTVVMLERDSTSAGTSERATEKIATTDPTAPGTGGTAVGMLSTDSATQWSLTSVETVQPASTEVETSQPAPMEAETSQPAPMEAETSQPAPMEAETSQPAPMEADTSQPAPMEAETSQPAPNEAETSKPAPTEAETSKPAPTEAETTQLPRIQAVKTLFTTSAATEVPSTEPTTMETASTESNESTIFLGPSVTHLPDSGLKKGLIVTPGNSPAPTLPGSSDLIPVKQCLLIILILASLATIFLVCTVVLAVRLSRKTHMYPVRNYSPTEMICISSLLPEGGDGAPVTANGGLPKVQDLKTEPSGDRDGDDLTLHSFLP
notes: whole, on cells; also called PSGL-1; PSGL1
In the case of B1, the binding result in experiment [1] and in experiment [2] was “binds” in each case.
